Assay results reported in PMC7484162.

Biological target: CD33 (UniProt P20138)
UniProt P20138, sequence (P20138 18-364): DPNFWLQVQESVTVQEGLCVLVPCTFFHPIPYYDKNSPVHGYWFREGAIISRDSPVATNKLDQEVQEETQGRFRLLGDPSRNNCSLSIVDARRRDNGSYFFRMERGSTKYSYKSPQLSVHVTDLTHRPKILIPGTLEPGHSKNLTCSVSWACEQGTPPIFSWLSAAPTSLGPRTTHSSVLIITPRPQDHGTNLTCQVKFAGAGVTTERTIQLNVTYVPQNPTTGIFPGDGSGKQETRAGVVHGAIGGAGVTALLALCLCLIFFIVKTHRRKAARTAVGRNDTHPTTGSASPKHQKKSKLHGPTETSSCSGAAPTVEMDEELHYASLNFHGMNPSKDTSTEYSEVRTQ

For “cam16-wt15–33 TriKE (second-generation Tri-specific Killer Engager) (from UniProt P40933 49-162)”, the Kd was 25.6 nM.
